T1: drRecJ WT (Deinococcus radiodurans, UniProt D0EM60 1-705)
T1 sequence: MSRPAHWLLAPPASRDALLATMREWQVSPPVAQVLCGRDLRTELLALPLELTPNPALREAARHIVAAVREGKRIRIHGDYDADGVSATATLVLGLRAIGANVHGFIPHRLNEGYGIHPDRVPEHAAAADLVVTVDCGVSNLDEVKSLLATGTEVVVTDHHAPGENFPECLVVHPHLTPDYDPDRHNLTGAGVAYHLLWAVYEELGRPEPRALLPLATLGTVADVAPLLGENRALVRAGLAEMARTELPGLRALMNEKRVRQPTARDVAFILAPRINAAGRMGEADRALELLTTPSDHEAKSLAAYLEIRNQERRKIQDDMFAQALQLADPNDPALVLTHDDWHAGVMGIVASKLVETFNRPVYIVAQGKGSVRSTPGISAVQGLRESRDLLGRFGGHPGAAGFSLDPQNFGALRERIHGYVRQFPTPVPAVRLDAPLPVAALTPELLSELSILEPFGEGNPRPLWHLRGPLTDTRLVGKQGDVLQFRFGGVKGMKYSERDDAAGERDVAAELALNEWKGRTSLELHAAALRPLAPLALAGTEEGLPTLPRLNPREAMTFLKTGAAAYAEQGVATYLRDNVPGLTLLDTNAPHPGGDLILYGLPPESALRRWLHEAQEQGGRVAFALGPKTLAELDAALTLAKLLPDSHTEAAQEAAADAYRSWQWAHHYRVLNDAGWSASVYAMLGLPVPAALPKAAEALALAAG


biological target: T1, drRecJ WT; assay: EMSA; no Mn2+ added; EMSA: 10 nM 3'-6-FAM ssDNA, 50 mM Tris-HCl pH 7.5, 150 mM KCl, 0.1 mg/ml BSA, 1 mM DTT, 5% glycerol, 20 min at 30 C; 8% native PAGE in TBE; Hill fit; settings: protein: recombinant; label: 3'-6-FAM

Point of comparison: AAAAAAAAAAAAAAAAAAAA (ssDNA) [KY08, (dA)20], Kd 54.9 ± 5.18 nM. Against it:
- AAAAAAAAAAAAAAAAAAAA (ssDNA, 5'-monophosphate) [KY10, 5'-P-(dA)20] — 1.6-fold lower, 33.9 ± 2.83 nM
- AAAAAAAAAAAAAAAAAAAA (ssDNA, 5'-P-dSpacer (tetrahydrofuran abasic, 5'-dRP mimic) added before A1) [KY11, 5'-P-dSpacer-(dA)20] — 1.9-fold lower, 28.4 ± 3.1 nM

Reference: publication PMC7515722, “Participation of RecJ in the base excision repair pathway of Deinococcus radiodurans”
